Measured values from the Human Domainome abundance scans (Beltran et al. 2025).
± gives the uncertainty stated by the source.

B1: Pituitary-specific positive transcription factor 1, residues 130 to 198; numbered along this chain, P28069 (parent)
chain: RELEKFANEFKVRRIKLGYTQTNVGEALAAVHGSEFSQTTICRFENLQLSFKNACKLKAILSKWLEEAE
B2: Membrane-associated guanylate kinase, WW and PDZ domain-containing protein 2, residues 601 to 682; numbered along this chain, Q86UL8 (parent)
chain: AELMTLTIVKGAQGFGFTIADSPTGQRVKQILDIQGCPGLCEGDLIVEINQQNVQNLSHTEVVDILKDCPIGSETSLIIHRG

Variants of: B1
Test: abundance fitness (aPCA) (normalised: wild type 0, dead -1); higher = more abundant; growth selection in yeast, the domain comes from the species named
Conditions: Homo sapiens

Abundance fitness of substitutions, site by site:
N8: S 0.034 ± 0.059 | G -0.336 ± 0.12 | F -0.262 ± 0.073 | Q 0.12 ± 0.17 | C -0.496 ± 0.16 | K 0.155 ± 0.12 | T -0.04 ± 0.1 | I 0.024 ± 0.14 | P -0.783 ± 0.37 | W -0.414 ± 0.097 | Y -0.094 ± 0.15 | M -0.027 ± 0.11 | A 0.133 ± 0.064 | D -0.532 ± 0.17 | V -0.224 ± 0.12 | E -0.168 ± 0.15 | R 0.188 ± 0.076 | L 0.093 ± 0.072
E9: F -0.239 ± 0.23 | A -0.156 ± 0.076 | K -0.323 ± 0.091 | D 0.031 ± 0.074 | M -0.11 ± 0.056 | V -0.65 ± 0.1 | W -0.057 ± 0.085 | Q -0.188 ± 0.084 | S -0.213 ± 0.082 | C -0.714 ± 0.26 | T -0.398 ± 0.077 | R -0.645 ± 0.16 | L -0.246 ± 0.1 | P -0.917 ± 0.31 | Y -0.72 ± 0.16
E2: Q -0.523 ± 0.16 | W -0.541 ± 0.094 | C -0.984 ± 0.32 | D -0.109 ± 0.2 | I -0.676 ± 0.15 | N -0.518 ± 0.19 | S -0.443 ± 0.069 | L -0.672 ± 0.14 | R -0.624 ± 0.091 | A -0.412 ± 0.087 | Y -0.651 ± 0.27 | V -0.895 ± 0.18 | H -0.968 ± 0.39 | T -0.334 ± 0.12 | P -0.462 ± 0.19 | G -0.373 ± 0.072 | K -0.471 ± 0.24
F10: I -0.963 ± 0.39 | M -0.621 ± 0.2 | L -0.731 ± 0.081 | A -0.803 ± 0.17 | P -0.931 ± 0.39 | G -1.05 ± 0.17 | V -0.649 ± 0.12 | T -0.915 ± 0.28 | K -0.721 ± 0.49 | R -0.738 ± 0.12 | Q -0.434 ± 0.12 | H -0.762 ± 0.34 | N -0.59 ± 0.31 | Y -0.518 ± 0.23 | W -0.961 ± 0.24 | S -0.544 ± 0.086 | C -0.923 ± 0.39
R1: K 0.376 ± 0.14 | M -0.712 ± 0.26 | F -0.128 ± 0.23 | L -0.306 ± 0.37 | D -0.187 ± 0.099 | T -0.371 ± 0.19 | N -0.37 ± 0.17 | I -0.508 ± 0.15 | E -0.348 ± 0.48 | V -0.441 ± 0.14
K5: H -0.135 ± 0.065 | T -0.21 ± 0.066 | I -0.079 ± 0.054 | G -0.478 ± 0.071 | N -0.079 ± 0.056 | S -0.278 ± 0.044 | V -0.278 ± 0.041 | P -1.07 ± 0.16 | Y -0.236 ± 0.096 | D 0.048 ± 0.074 | L -0.227 ± 0.039 | W -0.596 ± 0.063 | E -0.062 ± 0.049 | R -0.117 ± 0.043 | A -0.015 ± 0.045 | F -0.46 ± 0.14 | Q -0.172 ± 0.064 | C -0.647 ± 0.089
L3: R -0.751 ± 0.24 | E -0.725 ± 0.29 | H -0.611 ± 0.18 | I -0.194 ± 0.22 | F -0.472 ± 0.12 | K -0.718 ± 0.26 | W -0.715 ± 0.16 | T -0.867 ± 0.4 | S -0.855 ± 0.19 | M -0.469 ± 0.13 | C -0.953 ± 0.44 | G -0.571 ± 0.11 | D -0.794 ± 0.22 | Y -0.22 ± 0.13 | V -0.468 ± 0.082
R13: Q -0.193 ± 0.12 | L -0.913 ± 0.35 | W -0.733 ± 0.22 | P -0.898 ± 0.27 | E -0.976 ± 0.3 | N -0.618 ± 0.44 | D -0.803 ± 0.36 | G -0.69 ± 0.12 | V -0.734 ± 0.1 | S -0.924 ± 0.26 | T -0.913 ± 0.3 | A -0.179 ± 0.073 | K -0.308 ± 0.13 | F -0.872 ± 0.4
K11: R -0.021 ± 0.051 | M -0.546 ± 0.16 | S -0.65 ± 0.14 | L -0.973 ± 0.2 | F -1.02 ± 0.39 | W -0.911 ± 0.28 | V -0.694 ± 0.15 | G -0.6 ± 0.11 | E -0.786 ± 0.15 | C -0.795 ± 0.2 | Q -0.507 ± 0.064 | I -0.458 ± 0.15 | D -1.02 ± 0.43
F6: C -0.992 ± 0.17 | T -0.992 ± 0.17 | M -0.753 ± 0.095 | R -0.844 ± 0.086 | G -0.688 ± 0.053 | Q -0.916 ± 0.13 | S -0.997 ± 0.13 | V -0.941 ± 0.11 | P -0.835 ± 0.19 | Y -0.837 ± 0.1 | A -0.666 ± 0.11 | D -1.06 ± 0.22 | N -0.88 ± 0.21 | K -0.756 ± 0.18 | W -0.333 ± 0.052 | H -0.726 ± 0.12 | E -0.791 ± 0.14
V12: I -0.002 ± 0.11 | F -0.318 ± 0.15 | M -0.045 ± 0.089 | H 0.095 ± 0.12 | D -0.175 ± 0.12 | Y -0.295 ± 0.16 | R -0.101 ± 0.12 | A 0.173 ± 0.06 | W -0.56 ± 0.22 | E 0.275 ± 0.063 | K -0.071 ± 0.088 | C -0.183 ± 0.11 | Q 0.16 ± 0.23 | S 0.089 ± 0.076 | L -0.16 ± 0.059 | P -0.772 ± 0.48
E4: K -0.084 ± 0.08 | Q -0.245 ± 0.27 | F -0.316 ± 0.087 | A 0.043 ± 0.084 | C -0.552 ± 0.21 | P -0.898 ± 0.15 | G -0.848 ± 0.35 | M -0.451 ± 0.21 | R -0.229 ± 0.058 | Y -0.604 ± 0.24 | I -0.145 ± 0.069 | L -0.579 ± 0.11 | V -0.072 ± 0.07 | S -0.157 ± 0.079 | D -0.612 ± 0.32 | T -0.249 ± 0.074
R14: C -0.79 ± 0.32
A7: E -0.235 ± 0.11 | T -0.356 ± 0.17 | R -0.7 ± 0.094 | M -0.551 ± 0.15 | G -0.885 ± 0.16 | H -0.973 ± 0.34 | C -0.21 ± 0.061 | D -0.783 ± 0.15 | I 0.162 ± 0.11 | L -0.975 ± 0.13 | Q -0.944 ± 0.46 | S -0.425 ± 0.19

Variants of: B2
Test: as above
Conditions: Homo sapiens

Abundance fitness: each site, then its substitutions
E74: K -0.23 ± 0.34 | M 0.062 ± 0.15 | Q -0.074 ± 0.16 | S -0.16 ± 0.1 | H 0.241 ± 0.47 | C -0.322 ± 0.17 | P 0.149 ± 0.12 | V -0.122 ± 0.12 | D 0.137 ± 0.15 | A -0.185 ± 0.088 | G -0.153 ± 0.1 | T -0.422 ± 0.38 | W -0.069 ± 0.096 | R 0.013 ± 0.069 | I -0.214 ± 0.16
H80: R 0.027 ± 0.063 | T 0.028 ± 0.079 | P -0.395 ± 0.14 | L -0.135 ± 0.079 | A -0.049 ± 0.077 | E 0.019 ± 0.11 | V -0.231 ± 0.098 | C -0.121 ± 0.11 | G -0.006 ± 0.076 | F -0.128 ± 0.19 | D 0.043 ± 0.14 | M -0.23 ± 0.27 | W -0.079 ± 0.16 | N 0.124 ± 0.19 | S 0.014 ± 0.075
S76: C 0.016 ± 0.12 | M -0.003 ± 0.11 | L -0.061 ± 0.077 | I -0.118 ± 0.14 | E -0.044 ± 0.14 | D -0.124 ± 0.098 | V -0.031 ± 0.063 | H -0.668 ± 0.29 | A -0.018 ± 0.074 | Y 0.09 ± 0.21 | P -0.046 ± 0.072 | W -0.123 ± 0.076 | Q 0 ± 0.1 | N -0.003 ± 0.2 | T -0.053 ± 0.087 | R -0.021 ± 0.054
T75: A 0.101 ± 0.079 | C -0.331 ± 0.2 | M 0.047 ± 0.11 | Q -0.148 ± 0.14 | P -0.164 ± 0.078 | G -0.08 ± 0.063 | N -0.115 ± 0.19 | V 0.013 ± 0.091 | I -0.101 ± 0.4 | F -0.02 ± 0.16 | E -0.072 ± 0.11 | L -0.045 ± 0.072 | Y -0.151 ± 0.12 | D -0.09 ± 0.21 | R -0.113 ± 0.075 | S -0.331 ± 0.082 | K -0.133 ± 0.11
I79: S -0.314 ± 0.11 | T -0.063 ± 0.12 | M -0.005 ± 0.16 | A -0.214 ± 0.14 | L 0.036 ± 0.077 | R -0.24 ± 0.064 | K -0.534 ± 0.16 | F -0.046 ± 0.17 | V -0.102 ± 0.073 | W -0.467 ± 0.17 | Q -0.73 ± 0.27 | G -0.42 ± 0.11 | C -0.115 ± 0.12
L77: R -1.17 ± 0.28 | P -0.86 ± 0.24 | D -1.28 ± 0.48 | G -1.02 ± 0.15 | T -0.132 ± 0.12 | M 0.008 ± 0.12 | V -0.03 ± 0.062 | W -0.072 ± 0.075 | K -0.892 ± 0.31 | A -0.124 ± 0.07 | E -1.12 ± 0.38 | I 0.24 ± 0.29 | F -0.05 ± 0.38 | S -0.583 ± 0.15
G82: D 0.009 ± 0.11 | L -0.148 ± 0.17 | C -0.117 ± 0.16 | A -0.051 ± 0.11 | S -0.09 ± 0.076 | R -0.016 ± 0.082 | K -0.16 ± 0.15 | T -0.023 ± 0.22 | H -0.303 ± 0.27 | P -0.058 ± 0.12 | W -0.184 ± 0.15 | Q 0.092 ± 0.37 | F -0.25 ± 0.17 | V -0.188 ± 0.16
R81: T -0.174 ± 0.12 | K -0.21 ± 0.17 | D -0.538 ± 0.41 | V -0.252 ± 0.11 | G 0.017 ± 0.067 | P 0.039 ± 0.083 | M -0.387 ± 0.12 | W -0.52 ± 0.12 | E -0.419 ± 0.1 | A -0.098 ± 0.079 | I -0.668 ± 0.25 | N -0.144 ± 0.37 | H 0.048 ± 0.23 | Q -0.051 ± 0.16
I78: A -0.179 ± 0.12 | F -0.035 ± 0.27 | K -0.122 ± 0.1 | W -0.129 ± 0.089 | T -0.224 ± 0.15 | H -0.157 ± 0.2 | N -0.011 ± 0.2 | Q -0.23 ± 0.14 | M 0.144 ± 0.14 | P -1.13 ± 0.49 | G -0.075 ± 0.068 | E -0.086 ± 0.17 | S 0.019 ± 0.098 | L -0.053 ± 0.097 | R 0.033 ± 0.071
S73: W -0.06 ± 0.091 | Y -0.178 ± 0.19
